Assay results: the RNAGym collection of RNA variant scans (doi:10.1073/pnas.2313332121)
Fewer inactive variants are shown than the library holds.

B1: TPR 5TU (parent)
chain: GGAUCUUCUCGAUCUAACAAAAAAGACAAAUCUGCCACAAAGCUUGAGAGCAUCUUCGGAUGCAGAGGCGGCAGCCUUCGGUGGCGCGAUAGCGCCAACGUUCUCAACUAUGACACGCAAAACGCGUGCUCCGUUGAAUGGAGUUUAUCAUG

Variants of: B1
Assay: polymerase ribozyme fitness, log enrichment relative to wild type (log ratio); higher = more active; in vitro selection for triplet polymerase activity
Outline: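 One round of in vitro selection, in triplicate, was applied to PCR-built, transcribed mutant libraries of each subunit of a heterodimeric triplet polymerase ribozyme. The steps were annealing with a biotinylated primer, partner subunit and triplets, incubation frozen at −7 °C, gel excision of extended constructs, streptavidin-bead capture and RT-PCR. Fitness is the logarithm, base 2, of genotype enrichment over wild-type enrichment from inverse-variance-weighted replicate averages of Illumina-sequenced inputs and outputs, keeping genotypes with ≥10 input reads and ≥1 read per output.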

Variant | polymerase ribozyme fitness (log ratio)
A47U C85A | -2.21
A47U C85G | -2.65
G48A C103A | -1.74
U45A A49G G84U A115G A120G | ≤ -4.2
U44A G58C G92C G141U C149A | ≤ -4.2
U45A C79G G84C C93G U102G | ≤ -4.2
U44A G50A U77A U78A C93G A115C G133A G141A | -4.14
U45A U55A | -2.95
U44G G70C G140U | ≤ -4.2
U45A G46C A98U | ≤ -4.2
U45A G83C C105U C131G | ≤ -4.2
G48A U55A A119U G124U U144C | -1.13
U45G C75G C87A A120C G141C | ≤ -4.2
A47C C57U C79A G94A U151G | ≤ -4.2
G48A C125U | -0.97
G46U A98G | 0.0194
A47U A97C | 0.501
A47G G50A A52U C63A A142C | ≤ -4.2
G46A C85U A89G C96A A106C U145C U146G | ≤ -4.2
G48C G68C G70A C129G | ≤ -4.2
A47C C105A | -1.02

Variant | polymerase ribozyme fitness (log ratio)
U44C G86U C103G G140A U148A | ≤ -4.2
U44A G62A G84A U134A | ≤ -4.2
U44G G136A | -3.71
A47C C63A G83A | -1.37
U45G A137C | -4.14
A47C U53A C85G U139A | ≤ -4.2
G46C A52G A137G | -2.44
G48A G67U G84U C105G | ≤ -4.2
G48A C69G G84U | -2.41
G46A A47C U53A C57U A107U G117A | ≤ -4.2
A47U G83C A142G | -2.42
U45G C116U | 0.00932
U45A C114U | -4.01
A47U G81A C125G A150C | ≤ -4.2
U44G A73U C85A C99U A142C | ≤ -4.2
G48C C76A C93U G94A A138C G140A U146G | ≤ -4.2
G46A C96U | 0.0159
A47U U55A C87U | -2.17
G48C A120C | -0.573
A47C U82G A142C | -2.54
G48C G83U | -1.41

Variant | polymerase ribozyme fitness (log ratio)
U44A C76A A91G | ≤ -4.2
U44G C57G A91U A107G C125U U130C U135G | ≤ -4.2
G48A U55A | -1.14
G48A C57G G83C C87G U102A G112C A119C | ≤ -4.2
G46A U82C C95U C125G | -1.73
A47C A89U A150G | -1.84
A47U C54U U56A G84C C99A C108U C114U G126U | ≤ -4.2
U44G G141A | -4.12
G48A C96A | -1.51
G48A C96U | -0.356
U44A C54U U82G C87A C123U | ≤ -4.2
A47U U55G G68A G84U U151A | ≤ -4.2
A47C U61A | -3.21
U45A A52G C118A | -4.18
U45C G84A | -1.08
A47C G92A A107G | ≤ -4.2
U45G G50C G81C C85A C118A | ≤ -4.2
U44G A52G U53A C75A | ≤ -4.2
A47C A73U G124C | -3.78
G48A A52G C116U | -0.319
U45A C85G | -3.95

Variant | polymerase ribozyme fitness (log ratio)
G48A C93G | -3.69
U45A C93U | -3.15
U45A C57A C95U | -2.12
A47G G50C G71C G94A U134C | ≤ -4.2
A47C C51U C54U C72U G84U | -3.18
G46C C149U | -2.58
A47U A49C C51U C93A | ≤ -4.2
U45A A52G C63G A64U G70C A89C U101G C116A | ≤ -4.2
G46U G58U A89U U102G C118G C129A G152U | ≤ -4.2
A47U C85U A150C | ≤ -4.2
G48C U55A C93G | -3.87
U45G A52U U55A A73U C85U G117A C149A | ≤ -4.2
U45A A52G C116G | -3.56
G46A G83A | -0.911
A47G U90C G92C G128U A137C A147C | ≤ -4.2
G48A C85G C125G | -4.1
A47C C75G U77A G88A A106U | ≤ -4.2
A47G U55A G84U G128A | ≤ -4.2
A47C C51U C54U A73C A122U | ≤ -4.2
G48A C57A | 0.284
U45G G50A C87A C103U G124A | ≤ -4.2
